Test results reported in the supplement of paper PMC11246515.
± gives the standard deviation of the averaged measurements.

Test: total protein half-life in vivo (active degradation + dilution); higher = more stable protein
[1] = E. coli NCM3722 delta-clpP delta-lon delta-hslV, growth: N-lim chemostat, doubling time 6 h
[2] = E. coli NCM3722 delta-clpP, growth: N-lim chemostat, doubling time 6 h
[3] = E. coli NCM3722 delta-hslV, growth: N-lim chemostat, doubling time 6 h
[4] = E. coli NCM3722 delta-lon, growth: N-lim chemostat, doubling time 6 h
[5] = E. coli NCM3722 delta-smpB, growth: N-lim chemostat, doubling time 6 h
[6] = wild type E. coli NCM3722, growth: C-lim chemostat, doubling time 3 h
[7] = wild type E. coli NCM3722, growth: C-lim chemostat, doubling time 6 h
[8] = wild type E. coli NCM3722, growth: C-lim chemostat, doubling time 12 h
[9] = wild type E. coli NCM3722, growth: N-lim chemostat, doubling time 6 h
[10] = wild type E. coli NCM3722, growth: N-lim chemostat, doubling time 12 h
[11] = wild type E. coli NCM3722, growth: P-lim chemostat, doubling time 6 h
[12] = wild type E. coli NCM3722, growth: P-lim chemostat, doubling time 12 h

Sequence | total protein half-life in vivo [1] [h] | total protein half-life in vivo [2] [h] | total protein half-life in vivo [3] [h] | total protein half-life in vivo [4] [h] | total protein half-life in vivo [5] [h] | total protein half-life in vivo [6] [h] | total protein half-life in vivo [7] [h] | total protein half-life in vivo [8] [h] | total protein half-life in vivo [9] [h] | total protein half-life in vivo [10] [h] | total protein half-life in vivo [11] [h] | total protein half-life in vivo [12] [h]
MSEFSQTVPELVAWARKNDFSISLPVDRLSFLLAVATLNGERLDGEMSEGELVDAFRHVSDAFEQTSETIGVRANNAINDMVRQRLLNRFTSEQAEGNAIYRLTPLGIGITDYYIRQREFSTLRLSMQLSIVAGELKRAADAAEEGGDEFHWHRNVYAPLKYSVAEIFDSIDLTQRLMDEQQQQVKDDIAQLLNKDWRAAISSCELLLSETSGTLRELQDTLEAAGDKLQANLLRIQDATMTHDDLHFVDRLVFDLQSKLDRIISWGQQSIDLWIGYDRHVHKFIRTAIDMDKNRVFAQRLRQSVQTYFDEPWALTYANADRLLDMRDEEMALRDEEVTGELPEDLEYEEFNEIREQLAAIIEEQLAVYKTRQVPLDLGLVVREYLSQYPRARHFDVARIVIDQAVRLGVAQADFTGLPAKWQPINDYGAKVQAHVIDKY | 5.86 ± 0.58 | 6.12 ± 0.39 | 5.79 ± 0.81 | 5.07 ± 0.54 | 5.246 ± 0.022 | 3.2 ± 0.06 | 5.42 ± 0.67 | 9.64 ± 0.19 | 5.36 ± 0.55 | 7.76 ± 0.8 | 5.7 ± 0.13 | 8.345 ± 0.032
MNVNSSSNRGEAILAALKTQFPGAVLDEERQTPEQVTITVKINLLPDVVQYLYYQHDGWLPVLFGNDERTLNGHYAVYYALSMEGAEKCWIVVKALVDADSREFPSVTPRVPAAVWGEREIRDMYGLIPVGLPDQRRLVLPDDWPEDMHPLRKDAMDYRLRPEPTTDSETYPFINEGNSDARVIPVGPLHITSDEPGHFRLFVDGEQIVDADYRLFYVHRGMEKLAETRMGYNEVTFLSDRVCGICGFAHSVAYTNSVENALGIEVPQRAHTIRSILLEVERLHSHLLNLGLSCHFVGFDTGFMQFFRVREKSMTMAELLIGSRKTYGLNLIGGVRRDILKEQRLQTLKLVREMRADVSELVEMLLATPNMEQRTQGIGILDRQIARDLRFDHPYADYGNIPKTLFTFTGGDVFSRVMVRVKETFDSLAMLEFALDNMPDTPLLTEGFSYKPHAFALGFVEAPRGEDVHWSMLGDNQKLFRWRCRAATYANWPVLRYMLRGNTVSDAPLIIGSLDPCYSCTDRVTLVDVRKRQSKTVPYKEIERYGIDRNRSPLK | 7.09 | – | 5.63 | – | – | – | – | – | 5.27 | – | – | –
MTPHVMKRDGCKVPFKSERIKEAILRAAKAAEVDDADYCATVAAVVSEQMQGRNQVDINEIQTAVENQLMSGPYKQLARAYIEYRHDRDIEREKRGRLNQEIRGLVEQTNASLLNENANKDSKVIPTQRDLLAGIVAKHYARQHLLPRDVVQAHERGDIHYHDLDYSPFFPMFNCMLIDLKGMLTQGFKMGNAEIEPPKSISTATAVTAQIIAQVASHIYGGTTINRIDEVLAPFVTASYNKHRKTAEEWNIPDAEGYANSRTIKECYDAFQSLEYEVNTLHTANGQTPFVTFGFGLGTSWESRLIQESILRNRIAGLGKNRKTAVFPKLVFAIRDGLNHKKGDPNYDIKQLALECASKRMYPDILNYDQVVKVTGSFKTPMGCRSFLGVWENENGEQIHDGRNNLGVISLNLPRIALEAKGDEATFWKLLDERLVLARKALMTRIARLEGVKARVAPILYMEGACGVRLNADDDVSEIFKNGRASISLGYIGIHETINALFGGEHVYDNEQLRAKGIAIVERLRQAVDQWKEETGYGFSLYSTPSENLCDRFCRLDTAEFGVVPGVTDKGYYTNSFHLDVEKKVNPYDKIDFEAPYPPLANGGFICYGEYPNIQHNLKALEDVWDYSYQHVPYYGTNTPIDECYECGFTGEFECTSKGFTCPKCGNHDASRVSVTRRVCGYLGSPDARPFNAGKQEEVKRRVKHLGNGQIG | 2.17 ± 0.33 | 1.045 ± 0.0046 | 0.844 ± 0.15 | 1.02 ± 0.11 | 0.762 ± 0.051 | 2.63 ± 0.5 | 2 ± 0.24 | 2.72 ± 0.57 | 1.67 ± 0.91 | 1.49 ± 0.42 | 2.99 ± 0.31 | 4.91 ± 0.075
MDLSLLKALSEADAIASSEQEVRQILLEEADRLQKEVRFDGLGSVLIRLNESTGPKVMICAHMDEVGFMVRSISREGAIDVLPVGNVRMAARQLQPVRITTREECKIPGLLDGDRQGNDVSAMRVDIGARSYDEVMQAGIRPGDRVTFDTTFQVLPHQRVMGKAFDDRLGCYLLVTLLRELHDAELPAEVWLVASSSEEVGLRGGQTATRAVSPDVAIVLDTACWAKNFDYGAANHRQIGNGPMLVLSDKSLIAPPKLTAWVETVAAEIGVPLQADMFSNGGTDGGAVHLTGTGVPTVVMGPATRHGHCAASIADCRDILQMQQLLSALIQRLTRETVVQLTDFR | 5.79 | – | – | – | – | 2.18 | – | – | – | – | – | –
MSGKPAARQGDMTQYGGSIVQGSAGVRIGAPTGVACSVCPGGVTSGHPVNPLLGAKVLPGETDIALPGPLPFILSRTYSSYRTKTPAPVGSLGPGWKMPADIRLQLRDNTLILSDNGGRSLYFEHLFPGEDGYSRSESLWLVRGGVAKLDEGHRLAALWQALPEELRLSPHRYLATNSPQGPWWLLGWCERVPEADEVLPAPLPPYRVLTGLVDRFGRTQTFHREAAGEFSGEITGVTDGAWRHFRLVLTTQAQRAEEARQQAISGGTEPSAFPDTLPGYTEYGRDNGIRLSAVWLTHDPEYPENLPAAPLVRYGWTPRGELAVVYDRSGKQVRSFTYDDKYRGRMVAHRHTGRPEIRYRYDSDGRVTEQLNPAGLSYTYQYEKDRITITDSLDRREVLHTQGEAGLKRVVKKEHADGSVTQSQFDAVGRLRAQTDAAGRTTEYSPDVVTGLITRITTPDGRASAFYYNHHNQLTSATGPDGLELRREYDELGRLIQETAPDGDITRYRYDNPHSDLPCATEDATGSRKTMTWSRYGQLLSFTDCSGYVTRYDHDRFGQMTAVHREEGLSQYRAYDSRGQLIAVKDTQGHETRYEYNIAGDLTAVIAPDGSRNGTQYDAWGKAVRTTQGGLTRSMEYDAAGRVIRLTSENGSHTTFRYDVLDRLIQETGFDGRTQRYHHDLTGKLIRSEDEGLVTHWHYDEADRLTHRTVKGETAERWQYDERGWLTDISHISEGHRVAVHYRYDEKGRLTGERQTVHHPQTEALLWQHETRHAYNAQGLANRCIPDSLPAVEWLTYGSGYLAGMKLGDTPLVEYTRDRLHRETLRSFGRYELTTAYTPAGQLQSQHLNSLLSDRDYTWNDNGELIRISSPRQTRSYSYSTTGRLTGVHTTAANLDIRIPYATDPAGNRLPDPELHPDSTLSMWPDNRIARDAHYLYRYDRHGRLTEKTDLIPEGVIRTDDERTHRYHYDSQHRLVHYTRTQYEEPLVESRYLYDPLGRRVAKRVWRRERDLTGWMSLSRKPQVTWYGWDGDRLTTIQNDRSRIQTIYQPGSFTPLIRVETATGELAKTQRRSLADALQQSGGEDGGSVVFPPVLVQMLDRLESEILADRVSEESRRWLASCGLTVEQMQNQMDPVYTPARKIHLYHCDHRGLPLALISTEGATAWCAEYDEWGNLLNEENPHQLQQLIRLPGQQYDEESGLYYNRHRYYDPLQGRYITQDPIGLKGGWNLYGYQLNPISDIDPLGLSMWEDAKSGACTNGLCGTLSAMIGPDKFDSIDSTAYDALNKINSQSICEDKEFAGLICKDNSGRYFSTAPNRGERKGSYPFNSPCPNGTEKVSAYHTHGADSHGEYWDEIFSGKDEKIVKSKDNNIKSFYLGTPSGNFKAIDNHGKEITNRKGLPNVCRVHGNM | – | 5.71 | 6.16 ± 0.29 | – | – | – | 5.99 ± 0.77 | 15.1 | 5.88 | 12.5 ± 0.6 | 4.38 | 13.7
MLRFSANLSMLFGEYDFLARFEKAAQCGFRGVEFMFPYDYDIEELKHVLASNKLEHTLHNLPAGDWAAGERGIACIPGREEEFRDGVAAAIRYARALGNKKINCLVGKTPAGFSSEQIHATLVENLRYAANMLMKEDILLLIEPINHFDIPGFHLTGTRQALKLIDDVGCCNLKIQYDIYHMQRMEGELTNTMTQWADKIGHLQIADNPHRGEPGTGEINYDYLFKVIENSDYNGWVGCEYKPQTTTEAGLRWMDPYR | 4.29 ± 0.63 | 5.97 | – | 4.98 | 3.59 ± 0.17 | – | – | 10.1 | 3.73 | 6.46 | 5.52 | 7.81
MFDNLTDRLSRTLRNISGRGRLTEDNVKDTLREVRMALLEADVALPVVREFINRVKEKAVGHEVNKSLTPGQEFVKIVRNELVAAMGEENQTLNLAAQPPAVVLMAGLQGAGKTTSVGKLGKFLREKHKKKVLVVSADVYRPAAIKQLETLAEQVGVDFFPSDVGQKPVDIVNAALKEAKLKFYDVLLVDTAGRLHVDEAMMDEIKQVHASINPVETLFVVDAMTGQDAANTAKAFNEALPLTGVVLTKVDGDARGGAALSIRHITGKPIKFLGVGEKTEALEPFHPDRIASRILGMGDVLSLIEDIESKVDRAQAEKLASKLKKGDGFDLNDFLEQLRQMKNMGGMASLMGKLPGMGQIPDNVKSQMDDKVLVRMEAIINSMTMKERAKPEIIKGSRKRRIAAGCGMQVQDVNRLLKQFDDMQRMMKKMKKGGMAKMMRSMKGMMPPGFPGR [P0AGD7] | 5.51 ± 0.064 | 5.31 ± 0.54 | 4.4 ± 0.073 | 5.49 ± 0.42 | 4.58 ± 0.087 | 2.85 ± 0.033 | 4.898 ± 0.04 | 8.739 ± 0.073 | 4.28 ± 0.099 | 7.9 ± 0.14 | 4.6 ± 0.13 | 9.883 ± 0.071
